Target: EGFP-EVH2(Mena) (mouse)
Experiment: cross-linking; lysates of MV^D7 cells stably expressing EGFP-EVH2 (Mena); 100 mM EDC and 10 mM NHS-ester, 1 h, room temperature; 50 mM MES pH 6.0, 500 mM NaCl; SDS/6% PAGE and anti-GFP western blot

## EGFP-EVH2(Mena) (domain or fragment)
  stoichiometry N: 4

Reference: publication PMC4721544
